Values quoted from earlier work as cited in publication PMC3432731.

Biological target: Cyclin A (Homo sapiens) (UniProt P20248)
UniProt P20248, sequence (P20248 whole entry): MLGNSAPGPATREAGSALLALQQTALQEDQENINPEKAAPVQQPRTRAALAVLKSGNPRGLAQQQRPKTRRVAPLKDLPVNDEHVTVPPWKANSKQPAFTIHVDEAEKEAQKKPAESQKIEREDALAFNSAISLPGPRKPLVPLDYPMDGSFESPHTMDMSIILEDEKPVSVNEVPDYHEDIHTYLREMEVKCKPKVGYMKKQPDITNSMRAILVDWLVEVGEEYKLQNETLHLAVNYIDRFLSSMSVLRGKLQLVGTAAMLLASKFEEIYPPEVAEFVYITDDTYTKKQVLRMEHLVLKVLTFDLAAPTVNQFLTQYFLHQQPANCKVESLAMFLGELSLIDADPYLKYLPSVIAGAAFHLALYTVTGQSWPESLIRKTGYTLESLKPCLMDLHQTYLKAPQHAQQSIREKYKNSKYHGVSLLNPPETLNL

- Kd: 25 nM
Substance: p27 (from UniProt P46527)
